Source: US20220047716A1 (SUTRO BIOPHARMA, published 2022)

B1: SRP1848-B03 (antibody, V domains shown)
VH: EVQLVESGGGLVQPGGSLRLSCAASGFNISMKYIHWVRQAPGKGLEWVGGITPIDGMTDYADSVKGRFTISADTSKNTAYLQMNSLRAEDTAVYYCARGSWSWPSGYSYYLDYWGQGTLVTVSS
VL: not shown
B2: SRP1848-B04 (antibody, V domains shown)
VH: EVQLVESGGGLVQPGGSLRLSCAASSFNISNHSIHWVRQAPGKGLEWVGEIYPVDGITDYADSVKGRFTISADTSKNTAYLQMNSLRAEDTAVYYCARGRYSWRAGYSYYLDYWGQGTLVTVSS
VL: not shown
B3: SRP1848-B05 (antibody, V domains shown)
VH: EVQLVESGGGLVQPGGSLRLSCAASGFNISNYYIHWVRQAPGKGLEWVGGISPIDGYTDYADSMKGRFTISADTSKNTAYLQMSSLRAEDTAVYYCARGSWFWQSGYGYYLDYWGQGTLVTVSS
VL: not shown
B4: SRP1848-B06 (antibody, V domains shown)
VH: EVQLVESGGGLVQPGGSLRLSCAASGFNISNYYIHWVRQAPGKGLEWVGGITPIDGYTDYADSVKGRFTISADTSKNTAYLQMNSLRAEDTAVYYCARGFWSWPSGYGYYQDYWGQGTLVTVSS
VL: not shown
B5: SRP1848-B07 (antibody, V domains shown)
VH: EVQLVESGGGLVQPGGSLRLSCAASGFNISRFYIHWVRQAPGKGLEWVGGISPYDGFTDYADSVKGRFTISADTSKNTAYLQMNSLRAEDTAVYYCARGSWSWPAGYGYYQDYWGQGTLVTVSS
VL: not shown
B6: SRP1848-B09 (antibody, V domains shown)
VH: EVQLVESGGGLVQPGGSLRLSCAAGGFNITNYYIHWVRQAPGKGLEWVGGITPVDGYTDYADRVKGRFTISADTSKNTAYLQMNSLRAEDTAVYYCARGAWSWRSGYGYYMDYWGQGTLVTVSS
VL: not shown
B7: SRP1848-B10 (antibody, V domains shown)
VH: EVQLVESGGGLVQPGGSLRLSCAASGFNTTTKSIHWVRQAPGKGLEWVGEIYPRDGITDYADSVKGRFTISADTSKNTAYLQMNSLRAEDTAVYYCARGGWHWRSGYSYYLDYWGQGTLVTVSS
VL: not shown
B8: SRP1848-B11 (antibody, V domains shown)
VH: EVQLVESGGGLVQPGGSLRLSCAASGFNIGNNSIHWVRQAPGKGLEWVGDISPIDGFTDYADSVKGRFTISADTSKNTAYLQMNSLRAEDTAVYYCARGSWSWRAGYGYYLDYWGQGTLVTVSS
VL: not shown
B9: SRP1848-C01 (antibody, V domains shown)
VH: EVQLVESGGGLVQPGGSLRLSCAASGFNIGNSYIHWVRQAPGKGLEWVGGVTPNDGYTDYADSVKGRFTISADTSKNTTYLQMNSLRAEDTAVYYCARGSWFWRAGYGYYLDYWGQGALVTVSS
VL: not shown
B10: SRP1848-C03 (antibody, V domains shown)
VH: EVQLVESGGGLVQPGGSLRLSCAASGFNIGVYSIHWVRQAPGKGLEWVGEIYPIDGNTDYADSVKGRFTISADTSKNTAYLQMNSLRAEDTAVYYCARGSWAWRSGYSYYLDYWGQGTLVTVSS
VL: not shown
B11: SRP1848-C04 (antibody, V domains shown)
VH: EVQLVESGGGLVQPGGSLRLSCAASGFNIRHYSIHWVRQAPGKGLEWVGEIYPGPGNTDYADSVKGRFTISADTSKNTAYLQMNSLRAEDTAVYYCARGSLSWRAGYGYYLDYWGQGTLVTVSS
VL: not shown
B12: SRP1848-C05 (antibody, V domains shown)
VH: EVQLVESGGGLVQPGGSLRLSCAASGFNIRKYSIHWVRQAPGKGLEWVGDIFPIDGINDYADSVKGRFTISADTSKNTAYLQMNSLRAEDTAVYYCARGSWSWKAGYGYYLDYWGQGTLVTVSS
VL: not shown
B13: SRP1848-C07 (antibody, V domains shown)
VH: EVQLVESGGGLVQPGGSLRLSCAASGFNIRKYSIHWVRQAPGKGLEWVGDIFPIDGITDYADSMKGRFTISADTSKNTAYLQMNSLRAEDTAVYYCARGSWSWPAGYGYYQDYWGQGTLVTVSS
VL: not shown
B14: SRP1848-C10 (antibody, V domains shown)
VH: EVQLVESGGGLVQPGGSLRLSCAASGFNIRTYYIHWVRQAPGKGLEWVGGISPIDGYTDYADSVKGRFTISADTSKNTAYLQMNSLRAEDTAVYYCARGSWSWPAGYGYYLDYWGQGTLVTVSS
VL: not shown
B15: SRP1848-D02 (antibody, V domains shown)
VH: EVQLVESGGGLVQPGGSLRLSCAASGFNISHNYIHWVRQAPGKGLEWVGGITPQDGYTDYADSVKGRFTISADTSKNTAYLQMNRLRAEDTAVYYCARGAWSWRAGYGYYLDYWGQGTLVTVSS
VL: not shown
B16: SRP1848-D04 (antibody, V domains shown)
VH: EVQLVESGGGLVQPGGSLRLSCAASGFNISHYSIHWVRQAPGKGLEWVGEIYPRDGITDYADSVKGRFTISADTSKNTAYLQMNSLSAEDTAVYYCARGYWFWRSGYGYYLDYWGQGTLVTVSS
VL: not shown
B17: SRP1848-D05 (antibody, V domains shown)
VH: EVQLVESGGGLVQPGGSLRLSCAASGFNISISYIHWVRQAPGKGLEWVGGISPIDGYTDYADSVKGRFTISADTSKNTAYLQMNSLRAEDTAVYYCARGSWSWRAGYGYYLDYWGQGTLVTVSS
VL: not shown
B18: SRP1848-D07 (antibody, V domains shown)
VH: EVQLVESGGGLVQPGGSLRLSCAASGFNISKYYIHWVRQAPGKGLEWVGGISPNDGYTDYADSVKGRFAISADTSKNTAYLQMNSLRAEDTAVYYCARGFWAWRSGYGYYLDYWGQGTLVTVSS
VL: not shown
B19: SRP1848-D09 (antibody, V domains shown)
VH: EVQLVESGGGLVQPGGSLRLSCAASGFNISNYYIHWVRQAPGKGLEWVGGISPNDGYTDYADSVKGRFTISADTSKNTAYLQMNSLRAEDTAVYYCARGSWSWRHGYGYYLDYWGQGTLVTVSS
VL: not shown
B20: SRP1848-D10 (antibody, V domains shown)
VH: EVQLVESGGGLVQPGGSLRLSCAASGFNISRNSIHWVRQAPGKGLEWVGWISPNDGTTDYADSVKGRFTISADGSKNTAYLQMNSLRAEDTAVYYCARGAWSWRSGYGYYIDYWGQGTLVTVSS
VL: not shown
B21: SRP1848-E01 (antibody, V domains shown)
VH: EVQLVESGGGLVQPGGSLRLSCAASGFNITNKYIHWVRQAPGKGLEWVGGITPFDGFTDYADSVKGRFTISADTSKNTAYLQMNSLRAEDTAVYYCARGSWSWPAGYGYYQDYWGQGTLVTVSS
VL: not shown
B22: SRP1848-E02 (antibody, V domains shown)
VH: EVQLVESGGGLVQPGGSLRLSCAASGFNIGKYSIHWVRQAPGKGLEWVGEIYPNDGNTDYADSVKGRFTISADTSKNTAYLQMNSLRAEDTAVYYCARGSWSWRSGYGYYLDYWGQGTLVTVSS
VL: not shown
B23: SRP1848-E05 (antibody, V domains shown)
VH: EVQLVESGGGLVQPGGSLRVSCAASGFNIGVYYIHWVRQAPGKGLEWVGGITPNDGYTDYADSVKGRFTISADTSKNTAYLQMNSLRAEDTAVYYCARGFWAWRSGYGYYLDYWGQGTLVTVSS
VL: not shown
B24: SRP1848-E07 (antibody, V domains shown)
VH: EVQLVESGGGLVQPGGSLRLSCAASGFNIRKSSIHWVRQAPGKGLEWVGEIFPYDGSTDYADNVKGRFTISADTSKNTAYLQMNSLRAEDTAVYYCARGAWSWRSGYGYYIDYWGQGTLVTVSS
VL: not shown

Target: human folate receptor alpha (hFOLR1) (human, UniProt P15328 25-234)
Sequence (P15328 25-234 limits assumed): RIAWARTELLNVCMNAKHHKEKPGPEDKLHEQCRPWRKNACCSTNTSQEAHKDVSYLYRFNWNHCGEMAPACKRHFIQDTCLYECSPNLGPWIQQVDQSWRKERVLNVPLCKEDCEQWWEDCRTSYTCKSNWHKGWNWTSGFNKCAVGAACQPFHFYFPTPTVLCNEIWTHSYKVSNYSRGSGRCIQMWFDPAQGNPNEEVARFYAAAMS
Experiment: cell-based or functional assay

First: B1
Second: B2
The “Igrov 2° antibody cell killing EC50” value of the first is 1.6-fold higher: 0.028 nM for the first, 0.018 nM for the second.

Going from B3 to B4, the “Igrov 2° antibody cell killing EC50” value falls from 0.04 nM to 0.022 nM (1.8-fold).

B5 and B6 are within 1.5-fold of each other in “Igrov 2° antibody cell killing EC50” value: 0.038 nM for the first, 0.027 nM for the second.

B8 and B9 are within 1.5-fold of each other in “Igrov 2° antibody cell killing EC50” value: 0.026 nM for the first, 0.023 nM for the second.

First: B10
Second: B11
The “Igrov 2° antibody cell killing EC50” value of the first is 2.2-fold higher: 0.035 nM for the first, 0.016 nM for the second.

Going from B12 to B13, the “Igrov 2° antibody cell killing EC50” value falls from 0.021 nM to 0.013 nM (1.6-fold).

B14 and B15 are within 1.5-fold of each other in “Igrov 2° antibody cell killing EC50” value: 0.036 nM for the first, 0.027 nM for the second.

First: B16
Second: B18
The “Igrov 2° antibody cell killing EC50” value of the first is 2.1-fold higher: 0.068 nM for the first, 0.032 nM for the second.

Going from B19 to B20, the “Igrov 2° antibody cell killing EC50” value falls from 0.023 nM to 0.012 nM (1.9-fold).

B21 and B22 are within 1.5-fold of each other in “Igrov 2° antibody cell killing EC50” value: 0.029 nM for the first, 0.025 nM for the second.

Compared with B23, B24 is 2.1-fold lower in “Igrov 2° antibody cell killing EC50” value: 0.027 nM for the first, 0.013 nM for the second.

First: B1
Second: B2
The “Igrov 2° antibody cell killing Span” value of the first is lower: 66% for the first, 70% for the second.

B3 and B4 are the same in “Igrov 2° antibody cell killing Span” value: 72% for the first, 72% for the second.

Compared with B5, B6 is higher in “Igrov 2° antibody cell killing Span” value: 73% for the first, 74% for the second.

Compared with B7, B8 is higher in “Igrov 2° antibody cell killing Span” value: 71% for the first, 74% for the second.

Going from B9 to B10, the “Igrov 2° antibody cell killing Span” value rises from 68% to 72%.

First: B11
Second: B12
The “Igrov 2° antibody cell killing Span” value of the first is higher: 68% for the first, 62% for the second.

First: B13
Second: B14
The “Igrov 2° antibody cell killing Span” value of the first is lower: 67% for the first, 75% for the second.

Going from B15 to B16, the “Igrov 2° antibody cell killing Span” value rises from 71% to 77%.

Going from B17 to B18, the “Igrov 2° antibody cell killing Span” value falls from 73% to 71%.

First: B19
Second: B20
The “Igrov 2° antibody cell killing Span” value of the first is higher: 70% for the first, 54% for the second.

First: B21
Second: B22
The “Igrov 2° antibody cell killing Span” value of the first is higher: 72% for the first, 71% for the second.

Compared with B23, B24 is lower in “Igrov 2° antibody cell killing Span” value: 78% for the first, 73% for the second.

B1 and B2 are within 1.5-fold of each other in “KB 2° antibody cell killing EC50” value: 0.05 nM for the first, 0.035 nM for the second.

B3 and B4 are within 1.5-fold of each other in “KB 2° antibody cell killing EC50” value: 0.065 nM for the first, 0.058 nM for the second.

B5 and B6 are within 1.5-fold of each other in “KB 2° antibody cell killing EC50” value: 0.079 nM for the first, 0.073 nM for the second.

B7 and B8 are within 1.5-fold of each other in “KB 2° antibody cell killing EC50” value: 0.04 nM for the first, 0.058 nM for the second.

Going from B10 to B11, the “KB 2° antibody cell killing EC50” value falls from 0.074 nM to 0.006 nM (12-fold).

B12 and B13 are within 1.5-fold of each other in “KB 2° antibody cell killing EC50” value: 0.073 nM for the first, 0.065 nM for the second.

Going from B14 to B15, the “KB 2° antibody cell killing EC50” value falls from 0.057 nM to 0.034 nM (1.7-fold).

Going from B16 to B17, the “KB 2° antibody cell killing EC50” value falls from 0.38 nM to 0.055 nM (6.9-fold).

First: B18
Second: B19
The “KB 2° antibody cell killing EC50” value of the first is 1.8-fold higher: 0.075 nM for the first, 0.042 nM for the second.

Going from B20 to B21, the “KB 2° antibody cell killing EC50” value rises from 0.016 nM to 0.088 nM (5.5-fold).

First: B22
Second: B23
The “KB 2° antibody cell killing EC50” value of the first is 1.5-fold lower: 0.046 nM for the first, 0.071 nM for the second.

B24 was tested, and the “KB 2° antibody cell killing EC50” value was 0.059 nM.

B1 and B2 are the same in “KB 2° antibody cell killing Span” value: 94% for the first, 94% for the second.

Compared with B3, B4 is higher in “KB 2° antibody cell killing Span” value: 94% for the first, 95% for the second.

First: B5
Second: B6
The “KB 2° antibody cell killing Span” value of the first is lower: 96% for the first, 97% for the second.

Going from B7 to B8, the “KB 2° antibody cell killing Span” value falls from 97% to 93%.

First: B9
Second: B10
The “KB 2° antibody cell killing Span” value of the first is lower: 90% for the first, 93% for the second.

Compared with B11, B12 is lower in “KB 2° antibody cell killing Span” value: 94% for the first, 92% for the second.

Compared with B13, B14 is higher in “KB 2° antibody cell killing Span” value: 93% for the first, 96% for the second.

Compared with B15, B16 is higher in “KB 2° antibody cell killing Span” value: 93% for the first, 97% for the second.

Compared with B17, B18 is higher in “KB 2° antibody cell killing Span” value: 92% for the first, 94% for the second.

Compared with B19, B20 is lower in “KB 2° antibody cell killing Span” value: 91% for the first, 90% for the second.

Compared with B21, B22 is higher in “KB 2° antibody cell killing Span” value: 92% for the first, 93% for the second.

Compared with B23, B24 is lower in “KB 2° antibody cell killing Span” value: 95% for the first, 94% for the second.
